Test results from patent US20250304936A1 (KYUNGPOOK NATIONAL UNIVERSITY INDUSTRY ACADEMIC COOPERATION …, published 2025).

Molecular target: the molecule itself
Test: size exclusion chromatography (Superdex 200 Increase 10/300 GL); self-association of the chain: 92.1 kDa measured against 40.9 kDa calculated for the monomer
Description: (A) Molecular sieve chromatography profiling of purified GH117A α-NABH was performed using a Superdex 200 Increase 10/300 GL column equilibrated with 40 mM Tris-HCl (pH 8.0) containing 150 mM NaCl. At this time, a protein solution containing 500 μg GH117A α-NABH was injected into the column, and the column was eluted at 4° C. at a flow rate of 0.3 mL/min, and the protein elution profile was monitored by measuring absorbance at 280 nm. […]
Molecular sieve chromatography was performed using a Superdex 200 Increase 10/300 GL column (GE Healthcare) equilibrated with 40 mM tris-HCl (pH 8.0) and 150 mM NaCl. Purified GH117A α-NABH (0.5 mg/0.5 mL) was injected into the column, and molecular sieve chromatography was performed under conditions of 4° C. and a flow rate of 0.3 mL/min, and protein elution was measured at a wavelength of 280 nm. For the column, a standard curve of retention volume versus protein molecular weight was obtained using size markers such as ferritin (440 kDa), aldolase (158 kDa), ovalbumin (44 kDa), and ribonuclease A (13.7 kDa), and molecular weight of the purified GH117A α-NABH was measured using the curve.

B1: recombinant His-tagged GH117A α-neoagarobiose hydrolase (α-NABH) of Cellvibrio sp. KY-GH-1 (enzyme)
chain: MGDLPEKKLSKASLRAIERGYDQKNADWVFEFDVKPLGGDFAYQEGVIRRDPSAVIFVDGLYHVWYTKGEGETVGFGSANPEDKVFPWDKTEVWHATSSDGWDWKEQGAAIVAGAPGSYDDRAVFTPEVLAHEGRYYLVYQTVKAPYLNRTKECIALASADSPYGPWVKSPAPILTPADNGVWDGDEDNRFNCKIRGDFDSHKVHDPCLMFYQNKFYLYYKGEIMGERMNFGGREIKHGVAIADKIEGPYVKSEFNPITNSGHEVVVWHVNGGIASLLTTDGPEKNTCQWSPDGINFDIMAHIKGAPEALGLYRDPAADIQDPMAGLAWGLCHKYDSSWNWNYICRFKTRRQILDPGTFQNVAS
notes: The entry under measurements means that the chain associates with itself; also called GH117A α-NABH; GH117 A α-NABH; not shown: C-terminal 6x His tag from vector pET-30a (cloned NdeI/XhoI)
binding result: binds
